Key:
[1] = tested on: RAJI cells; assay: JNG assay, co-culture with RAJI cells; type: cell-based; settings: for NFAT-GFP ASSAY: Raji: JNG cells expressing construct, co-culture with Raji
Summary of the method: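 Jurkat-NFAT-GFP (JNG) cells stably expressing SAR constructs via lentiviral transduction and puromycin/blasticidin selection were cocultured with target cells at E:T ~1:2 for ~4–18 h. NFAT-driven GFP was measured by FACS versus parental JNG cells; scores +/- to 5+ denote ~5–50% GFP-positive cells.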

[2] = tested on: LNCaP cells; assay: JNG assay, co-culture with LNCaP cells; type: cell-based; settings: for NFAT-GFP ASSAY: LNCaP: co-culture with LNCaP
Procedure: Cellular supernatant is collected and assayed for the induction of cytokines (e.g., IL2).
JNG (Jurkat cells expressing EGFP under an NFAT promoter) were infected with lentiviral vectors encoding different single chain and multi-chain SARs by spinfection in the presence of 8 µg/ml of Polybrene® (Sigma, Catalog no. H9268). The Jurkat-NFAT-GFP cells are engineered in such a way that the IL-2 promoter, which carries NFAT binding sites, is cloned upstream of the GFP gene. These cells have been used to study signaling via TCR and CAR. The different SARs were stably expressed in Jurkat NFAT-GFP cells by lentiviral mediated gene transfer, followed by selection with puromycin or blasticidin. No drug selection was used in case the construct lacked an antibiotic resistance gene. The SAR-expressing Jurkat-NFAT-GFP cells were cocultured with the target cells at E:T ratio of approximately 1:2 for approximately 4 hours to 18 hours. When the interaction between SIRs and their target antigen results in activation of the NFAT pathway, GFP expression is induced. […] GFP expression was monitored by FACS analysis. The Jurkat-NFAT-GFP (parental) cells were used as control. The structure of different constructs can be determined based on their names. For example, the construct CD8SP-CD19-hu-mROO5-1-vL-[hTCRa-C SDVP]-F-F2A-Spe-IgHSP-Apa-CD20-vHH-2HCD25-G4S-CDl9-hu-mROO5-1-vH-Mlu-[hTCRb-KACIAH]-F-P2A-PAC has the following modules from 5′ to 3′ direction: a CD8 signal peptide (CD8SP), the CD19 targeting hu-mROO5-1 vL fragment (CD19-hu-mROO5-1), Xho1 cloning site, human TCRa constant chain containing CSDVP mutations (hTCRa-CSDVP), Furine cleavage site (F), F2A ribosomal skip sequence (F2A), SpeI site, human IgH signal peptide (IgHSP), Apa I restriction enzyme site, camelid CD20-2HCD25-VHH module targeting CD20, BamHI restriction enzyme site, Glycinex4-serine linker (G4S), BstI restriction enzyme site, CD19-hu-mROO5-1-vH fragment targeting CD19, Mlu I restriction enzyme site, human TCRb constant chain containing KACIAH mutations ([hTCRb-KACIAH]), Furine cleavage site (F), P2A ribosomal skip sequence and Puromycin resistance gene (PAC). The sequence of the other constructs in the table can be similarly determined from their names and by referring to the different Tables of this disclosure that provide the names and SEQ ID NO of the different modules. Alternatively, the composition and modular architecture of the different SAR constructs can be determined from their sequences by bioinformatics tools, including using nucleic acid and amino acids homology searches. A SAR is considered positive in the assay in case the SAR expressing Jurkat-NFAT-GFP cells show greater % GFP positive cells when cultured with the target cell line as compared to parental Jurkat-NFAT-GFP cells. The signs +/-, +, 2+ etc. after the name of the cell lines indicate the relative degree of positivity on the Jurkat-NFAT-GFP assay as measured by the % GFP positive cells after culture of the SAR expressing Jurkat-NFAT-GFP cells with that cell line above the % GFP cells observed in parental Jurkat NFAT-GFP cells serving as controls. In general, the number +/-, +, 2+, 3+, 4+, 5+ refer to approximately 5%, 10%, 20%, 30%, 40% and 50% GFP positive cells. The % of GFP induction in the above assay is dependent not only the relative strength of the SAR but also, among other factors, on the relative level of expression of the SAR in the JNG cells and the relative level of expression of the target antigen in the target cell line. To control for the difference in gene transduction efficiency of the different SAR constructs, the experiment was conducted with JNG cells transduced with SAR constructs co-expressing a drug resistance gene (e.g., puromycin or PAC) followed by drug selection to generate a stable population of SAR-expressing cells. […]

| Molecule | GFP induction / activity ([1]; co-culture with RAJI cells) | GFP induction ([2]; LNCaP cells, only in the presence of SAR-adaptor PSMA-USC76-chVH-G4S-ULBP2-S3 (SEQ ID NO: 23114)) | NFAT-GFP ASSAY: Raji [1] | NFAT-GFP ASSAY: LNCaP [2] |
| --- | --- | --- | --- | --- |
| SEQ ID NO: 22288: SAR with adaptor binding domain (Table 48) (protein) MALPVTALLLPLALLLHAARPACLFNQEVQIPLTESYCGPCPKNWICYKNNCYQFFDESKNWYESQASCMSQNASLLKVYSKEDQDLLKLVKSAHWMGLVHIPTNGSWQWEDGSILSPNLLTIIEMQKGDCALYASSFKGYIENCSTPNTYICMQRTVLEGQPKANPTVTLFPPSSEELQANKATLVCLISDFYPGAVTVAWKADGSPVKAGVETTKPSKQSNNKYAASSYLSLTPEQWKSHRSYSCQVTHEGSTVEKTVAPTECSPIKTDVITMDPKDNCSKDANDTLLLQLTNTSAYYMYLLLLLKSVVYFAIITCCLLRRTAFCCNGEKSRAKRSGSGATNFSLLKQAGDVEENPGPTSATMDWIWRILFLVGAATGAHSGPQVQLQESGGGLAQAGGSLRLSCAASGRTFSMGWFRQAPGKEREFVAAITYSGGSPYYASSVRGRFTISRDNAKNTVYLQMNSLKPEDTAVYYCAANPTYGSDWNAENWGQGTQVTVSSGSGGGGSGGGGSGGGGSFEDLFNQEVQIPLTESYCGPCPKNWICYKNNCYQFFDESKNWYESQASCMSQNASLLKVYSKEDQDLLKLVKSAHWMGLVHIPTNGSWQWEDGSILSPNLLTIIEMQKGDCALYASSFKGFIENCSTPNTYICMQRTVTRASTKGPSVFPLAPSSKSTSGGTAALGCLVKDYFPEPVTVSWNSGALTSGVHTFPAVLQSSGLYSLSSVVTVPSSSLGTQTYICNVNHKPSNTKVDKRVEPKSCEVKTDSTDHVKPKETENTKQPSKSCHKPKAIVHTEKVNMMSLTVLGLRMLFAKTVAVNFLLTAKLFFLRAKRSGSGVKQTLNFDLLKLAGDVESNPGPSRGHMTEYKPTVRLATRDDVPRAVRTLAAAFADYPATRHTVDPDRHIERVTELQELFLTRVGLDIGKVWVADDGAAVAVWTTPESVEAGAVFAEIGPRMAELSGSRLAAQQQMEGLLAPHRPKEPAWFLATVGVSPDHQGKGLGSAVVLPGVEAAERAGVPAFLETSAPRNLPFYERLGFTVTADVEVPEGPRTWCMTRKPGA | Essentially similar results | Essentially similar results |  |  |
| 22043 (protein) MALPVTALLLPLALLLHAARPQLQLQESGPGLVKPSETLSLTCTVSGDSISSGDYYWGWIRQPPGKGLEWIGHIYYSGVTYYNPSLKSRVTISVDTSRNQFSLKLSSVTAADTAVYYCTREDSSNWRSRGQGTLVTVSSLEDKTHTCPPCPAPIKTDVITMDPKDNCSKDANDTLLLQLTNTSAYYMYLLLLLKSVVYFAIITCCLLRRTAFCCNGEKSRAKRSGSGATNFSLLKQAGDVEENPGPTSMDWIWRILFLVGAATGAHSFEVQLVESGGGVVQPGRSLRLSCAASGFSFSGYGMHWVRQAPGKGLEWVAYISYDGSNKYYADSVKGRFTISRDNSKNTLYLQMNSLRAEDTAVYYCAKDPAWGLRLGESSSYDFDIWGQGTMVTVSSTRDKTHTCPPCPAIPEDTFFPSPESSCDVKLVEKSFETDTNLNFQNLSVIGFRILLLKVAGFNLLMTLRLWSSRAKRSGSGVKQTLNFDLLKLAGDVESNPGPSRGHMTEYKPTVRLATRDDVPRAVRTLAAAFADYPATRHTVDPDRHIERVTELQELFLTRVGLDIGKVWVADDGAAVAVWTTPESVEAGAVFAEIGPRMAELSGSRLAAQQQMEGLLAPHRPKEPAWFLATVGVSPDHQGKGLGSAVVLPGVEAAERAGVPAFLETSAPRNLPFYERLGFTVTADVEVPEGPRTWCMTRKPGA |  |  | +/- (refer to approximately 5%, 10%, 20%, 30%, 40% and 50% GFP positive cells) | + (refer to approximately 5%, 10%, 20%, 30%, 40% and 50% GFP positive cells) |
| 22055 (protein) MALPVTALLLPLALLLHAARPQLQLQESGPGLVKPSETLSLTCTVSGDSISSGDYYWGWIRQPPGKGLEWIGHIYYSGVTYYNPSLKSRVTISVDTSRNQFSLKLSSVTAADTAVYYCTREDSSNWRSRGQGTLVTVSSLEGSEVKTDSTDHVKPKETENTKQPSKSCHKPKAIVHTEKVNMMSLTVLGLRMLFAKTVAVNFLLTAKLFFLRAKRSGSGVKQTLNFDLLKLAGDVESNPGPTSMDWIWRILFLVGAATGAHSFEVQLVESGGGVVQPGRSLRLSCAASGFSFSGYGMHWVRQAPGKGLEWVAYISYDGSNKYYADSVKGRFTISRDNSKNTLYLQMNSLRAEDTAVYYCAKDPAWGLRLGESSSYDFDIWGQGTMVTVSSTRGSGRADCGFTSESYQQGVLSATILYEILLGKATLYAVLVSALVLMAMVKRKDSRGRAKRSGSGATNFSLLKQAGDVEENPGPSRGHMTEYKPTVRLATRDDVPRAVRTLAAAFADYPATRHTVDPDRHIERVTELQELFLTRVGLDIGKVWVADDGAAVAVWTTPESVEAGAVFAEIGPRMAELSGSRLAAQQQMEGLLAPHRPKEPAWFLATVGVSPDHQGKGLGSAVVLPGVEAAERAGVPAFLETSAPRNLPFYERLGFTVTADVEVPEGPRTWCMTRKPGA |  |  | +/- (refer to approximately 5%, 10%, 20%, 30%, 40% and 50% GFP positive cells) | + (refer to approximately 5%, 10%, 20%, 30%, 40% and 50% GFP positive cells) |
| 22057 (protein) MALPVTALLLPLALLLHAARPQLQLQESGPGLVKPSETLSLTCTVSGDSISSGDYYWGWIRQPPGKGLEWIGHIYYSGVTYYNPSLKSRVTISVDTSRNQFSLKLSSVTAADTAVYYCTREDSSNWRSRGQGTLVTVSSLEGSEVKTDSTDHVKPKETENTKQPSKSCHKPKAIVHTEKVNMMSLTVLGLRMLFAKTVAVNFLLTAKLFFLRAKRSGSGVKQTLNFDLLKLAGDVESNPGPTSMDWIWRILFLVGAATGAHSFEVQLVESGGGVVQPGRSLRLSCAASGFSFSGYGMHWVRQAPGKGLEWVAYISYDGSNKYYADSVKGRFTISRDNSKNTLYLQMNSLRAEDTAVYYCAKDPAWGLRLGESSSYDFDIWGQGTMVTVSSTRDKTHTCPPCPAGRADCGFTSESYQQGVLSATILYEILLGKATLYAVLVSALVLMAMVKRKDFRAKRSGSGATNFSLLKQAGDVEENPGPSRGHMTEYKPTVRLATRDDVPRAVRTLAAAFADYPATRHTVDPDRHIERVTELQELFLTRVGLDIGKVWVADDGAAVAVWTTPESVEAGAVFAEIGPRMAELSGSRLAAQQQMEGLLAPHRPKEPAWFLATVGVSPDHQGKGLGSAVVLPGVEAAERAGVPAFLETSAPRNLPFYERLGFTVTADVEVPEGPRTWCMTRKPGA |  |  | +/- (refer to approximately 5%, 10%, 20%, 30%, 40% and 50% GFP positive cells) | + (refer to approximately 5%, 10%, 20%, 30%, 40% and 50% GFP positive cells) |
